B1: 单域抗体(2)(1-F2) (Fc fusion)
chain: QVQLVESGGGLVQPGGSMRLSCAASTIGLSIYSGAWYRQAAGKQRELVARITRRGVTNYADSVKGRFTISKDNAKNTVSLEMNSLKPEDTAVYYCNVGGEDGYWGQGTQVTVSS
B2: 单域抗体(1)(1-C11) (Fc fusion)
chain: DVQLVESGGGLVQPGGSLRLSCAASESLLRLYAMGWYRQLPGQEREWVAIHTTSDTTNYRDSVKGRFTLSRDVATNTIYLQMTSLKPEDTAVYYCHVTSMRDSQNYWGQGTQVTVSS
B3: Ixekizumab (antibody, human IgG4 S228P, kappa, V domains shown)
VH: QVQLVQSGAEVKKPGSSVKVSCKASGYSFTDYHIHWVRQAPGQGLEWMGVINPMYGTTDYNQRFKGRVTITADESTSTAYMELSSLRSEDTAVYYCARYDYFTGTGVYWGQGTLVTVSS
VL: DIVMTQTPLSLSVTPGQPASISCRSSRSLVHSRGNTYLHWYLQKPGQSPQLLIYKVSNRFIGVPDRFSGSGSGTDFTLKISRVEAEDVGVYYCSQSTHLPFTFGQGTKLEIKR
notes: Made in house from the variable regions cloned into pcDNA3.4-hIgG4 and pcDNA3.4-hIgKc vectors; positive control; also called 阳性对照抗体Ixekizumab; 对照抗体Ixekizumab
B4: 串联纳米抗体C11-1-F2 (Fc fusion)
chain: DVQLVESGGGLVQPGGSLRLSCAASESLLRLYAMGWYRQLPGQEREWVAIHTTSDTTNYRDSVKGRFTLSRDVATNTIYLQMTSLKPEDTAVYYCHVTSMRDSQNYWGQGTQVTVSSGGGGSGGGGSGGGGSQVQLVESGGGLVQPGGSMRLSCAASTIGLSIYSGAWYRQAAGKQRELVARITRRGVTNYADSVKGRFTISKDNAKNTVSLEMNSLKPEDTAVYYCNVGGEDGYWGQGTQVTVSS

These molecules were tested against T1, Human IL-17A重组蛋白 (IL-17A-His) (human, UniProt Q16552 24-155, biotin label in the ELISA of Example 2 (Biotin-IL-17A-His); site not stated) (assay: cell-based or functional assay).
T1 sequence (Q16552 other isoform, or with tags, fused parts or gaps limits assumed): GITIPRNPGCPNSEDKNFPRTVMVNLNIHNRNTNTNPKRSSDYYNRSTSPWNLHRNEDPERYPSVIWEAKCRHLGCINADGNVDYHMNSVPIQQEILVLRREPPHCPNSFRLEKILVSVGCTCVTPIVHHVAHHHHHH

IC50, 阻断活性 (reporter cells) [µg/mL] | Molecule
14.2 | B1
18.8 | B2
1.36 | B3
1.16 | B4

What follows are molecules tested against T1, Human IL-17A重组蛋白 (IL-17A-His) (assay: ELISA, antibody coated at 2 ug/mL, Biotin-IL-17A-His titrated from 10 ug/mL (5-fold, 7 points), HRP-streptavidin).

EC50 [µg/mL] | Molecule
4.04 | B1
30 | B2
10.1 | B3
0.745 | B4

The molecules below were run against IL-17RA and IL-17RC co-expressed on 293F-IL-17RA-IL-17Rc-ACT1-NFκB-Luc cells (UniProt Q96F46) (assay: FACS, IL-17A on 293 cells overexpressing IL-17RA and IL-17RC).

阳性率 [%] | Molecule
> 90 | Human IL-17A重组蛋白 (IL-17A-His) (from UniProt Q16552 24-155) (ligand)
